Assay results published in patent US20140371142A1 (Johns Hopkins, published 2014).

B1: FLAG epitope-tagged mouse myonectin (CTRP15) (ligand)
chain: LGVPESAEPVGTHARPQPPGAELPAPPANSPPEPTIAHAHSVDPRDAWMLFVKQSDKGINSKRRSKARRLKLGLPGPPGPPGPQGPPGPFIPSEVLLKEFQLLLKGAVRQRESHLEHCTRDLTTPASGSPSRVPAAQELDSQDPGALLALLAATLAQGPRAPRVEAAFHCRLRRDVQVDRRALHELGIYYLPEVEGAFHRGPGLNLTSGQYTAPVAGFYALAATLHVALTEQPRKGPTRPRDRLRLLICIQSLCQHNASLETVMGLENSSELFTISVNGVLYLQAGHYTSVFLDNASGSSLTVRSGSHFSAILLGLDYKDDDDK
modifications: N-linked glycans (sites not given)
notes: Secreted into the supernatant of transfected HEK 293T cells; Disulfide-linked dimer on a non-reducing gel and multimeric on a native gel; also called FLAG-tagged myonectin; recombinant myonectin

Tests used:
[1] = target: B1; experiment: co-expression in HEK 293T cells, immunoprecipitation then immunoblot of supernatants (FLAG / HA tags)
[2] = target: the molecule itself; experiment: native gel immunoblot, FIG. 4 legend (self-association)
Protocol: Native gel electrophoresis. Non-denaturing, non-reducing gel electrophoresis was carried out as previously described (PLoS One, 5: e12765).
Myonectin (CTRP15) protein forms disulfide-linked oligomers and heteromeric complexes with other CTRPs. Consistent with the presence of a signal peptide, myonectin was robustly secreted into the conditioned medium when expressed in vitro (FIG. 4A). Secreted myonectin contains N-linked glycans; treatment with PNGase F (an N-glycosidase) reduced the apparent molecular weight of myonectin on immunoblot (FIG. 4B), confirming that one or more of the conserved Asn residues are glycosylated. In the absence of reducing agent (β-ME), myonectin migrated as a dimer on immunoblot (FIG. 4C), indicating the presence of intermolecular disulfide bond. […] Formation of oligomers is a biochemical feature shared by all CTRPs and proteins of the C1q family. […] Similarly, when co-expressed in mammalian cells (HEK 293T), myonectin formed heteromeric complexes with CTRP2 and CTRP12, and, to a lesser extent, with CTRP5 and CTRP10 (FIG. 4E).

Binder	binding result [1]	binding result [2]
HA epitope-tagged CTRP2 (other, mouse, Co-expressed with FLAG-tagged myonectin in HEK 293T cells; supernatants were used for immunoprecipitation) DPMLGAFARRDFQKGGPQLVCSLPGPQGPPGPPGAPGSSGVVGRMGFPGKDGQDGQDGDRGDSGEEGPPGRTGNRGKQGPKGKAGAIGRAGPRGPKGVSGTPGKHGTPGKKGPKGKKGEPGLPGPCSCGSSRAKSAFSVAVTKSYPRERLPIKFDKILMNEGGHYNASSGKFVCSVPGIYYFTYDITLANKHLAIGLVHNGQYRIRTFDANTGNHDVASGSTILALKEGDEVWLQIFYSEQNGLFYDPYWTDSLFTGFLIYADQGDPNEVYPYDVPDYA	binds	–
B1	–	binds
HA epitope-tagged CTRP5 (other, mouse, Co-expressed with FLAG-tagged myonectin in HEK 293T cells; supernatants were used for immunoprecipitation) SPPLDDNKIPSLCPGQPGLPGTPGHHGSQGLPGRDGRDGRDGAPGAPGEKGEGGRPGLPGPRGEPGPRGEAGPMGAIGPAGECSVPPRSAFSAKRSESRVPPPADTPLPFDRVLLNEQGHYDPTTGKFTCQVPGVYYFAVHATVYRASLQFDLVKNGQSIASFFQYFGGWPKPASLSGGAMVRLEPEDQVWVQVGVGDYIGIYASIKTDSTFSGFLVYSDWHSSPVFAYPYDVPDYA	binds	–
HA epitope-tagged CTRP10 (other, mouse, Co-expressed with FLAG-tagged myonectin in HEK 293T cells; supernatants were used for immunoprecipitation) HYEMLGTCRMICDPYSVAPAGGPAGAKAPPPGPSTAALEVMQDLSANPPPPFIQGPKGDPGRPGKPGPRGPPGEPGPPGPRGPPGEKGDSGRPGLPGLQLTTSAAGGVGVVSGGTGGGGDTEGEVTSALSAAFSGPKIAFYVGLKSPHEGYEVLKFDDVVTNLGNHYDPTTGKFSCQVRGIYFFTYHILMRGGDGTSMWADLCKNGQVRASAIAQDADQNYDYASNSVVLHLDSGDEVYVKLDGGKAHGGNNNKYSTFSGFLLYPDYPYDVPDYA	binds	–
